Experimental data taken from US20230270877A1, “Combination Therapy” (Seagen Inc., priority 2020, published 2023).

Key:
human FcγRIIIa = target: T1, human FcγRIIIa (Homo sapiens, UniProt P08637); experiment: FcγR binding by flow cytometry on transfected CHO cells; conditions: FIG. 11B-D
T1 construct: expressed in transfected cells; host or cells: CHO cells
Procedure: (§1) CHO cells were incubated with increasing concentrations of antibodies and a secondary antibody used to assess binding as monitored by flow cytometry.
(§2) For each cell line, 50 million cells were washed once in 50 mL of PBS. Cells were counted again and resuspended at 2.2 million cells/mL in BD stain buffer. Cells were plated in a 96-well round bottom plate at 0.1 mL of cells per well.
(§3) Antibody solutions were diluted to make the following final concentrations: 3 mg/mL, 1 mg/mL, 0.3 mg/mL, 0.1 mg/mL, 0.03 mg/mL, 0.01 mg/mL, 0.003 mg/mL, 0.001 mg/mL, 0.0003 mg/mL. Each antibody solution was diluted at 10×(i.e., […] of media) to produce the following concentrations: 300, 100, 30, 10, 3, 1, […] μg/ml. Media was removed from the cells and the cells were washed with media. 100 μL of antibody solution was added to each well. Antibody solutions were added with decreasing concentrations in the vertical direction. […]
(§4) Next, PE conjugated anti-human IgG Fc antibody was prepared (1/50 dilution of 1 mg/ml concentration=[…] saturating concentration) in BD stain buffer. […] Cells were resuspended in PBS+1% paraformaldehyde and kept at 4° C. until they were analyzed by flow cytometry. Samples were analyzed using the Attune flow cytometer. […]

human FcγRIIb = target: T2, human FcγRIIb (Homo sapiens, UniProt P31994); experiment: as above; conditions: FIG. 11B-D
T2 construct: expressed in transfected cells; host or cells: CHO cells
T2 sequence (P31994 43-310): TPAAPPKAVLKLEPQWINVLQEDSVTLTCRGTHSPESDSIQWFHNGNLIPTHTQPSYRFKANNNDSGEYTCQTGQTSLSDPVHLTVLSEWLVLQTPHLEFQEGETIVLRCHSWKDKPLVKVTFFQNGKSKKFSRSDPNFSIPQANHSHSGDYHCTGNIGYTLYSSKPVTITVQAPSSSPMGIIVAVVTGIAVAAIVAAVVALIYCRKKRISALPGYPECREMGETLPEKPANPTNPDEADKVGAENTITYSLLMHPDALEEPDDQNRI
Procedure: as §1, §2, §3, §4

MM1S MM cells = experiment: Disseminated MM xenograft survival model (MM1S); type: in vivo, SCID animals; conditions: 0.1 mg/kg SEA-BCMA weekly x5 IP and/or 0.01 mg/kg SGN-CD48A once IP; N=8/group; FIG. 21A
Procedure: MM1S MM cells were injected IV into SCID animals, which contain active innate immune effector cells to mediate ADCP and ADCC. Seven days post implant, dosing was initiated with 0.1 mg/kg SEA-BCMA and/or 0.01 mg/kg SGN-CD48A, and animals were monitored for survival. SEA-BCMA was dosed weekly for 5 weeks IP and SGN-CD48A was dosed once IP. Animals were followed for 160 days for survival (N=8/group). By day 51, all untreated animals had been humanely euthanized according to IACUC protocols.

Farage cells = type: in vivo; conditions: single agent, SEA-CD70 3 mg/kg or SGN-35 1 mg/kg

T1 sequence (P08637 17-254): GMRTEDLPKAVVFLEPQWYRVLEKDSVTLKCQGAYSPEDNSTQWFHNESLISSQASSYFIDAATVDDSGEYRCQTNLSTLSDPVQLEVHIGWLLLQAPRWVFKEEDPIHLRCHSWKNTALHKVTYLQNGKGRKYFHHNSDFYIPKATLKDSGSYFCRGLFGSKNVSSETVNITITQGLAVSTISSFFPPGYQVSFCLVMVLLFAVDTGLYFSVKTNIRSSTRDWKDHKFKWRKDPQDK

B1: SEA-CD40: nonfucosylated, humanized version of murine S2C6 anti-CD40; VH and VL of SEQ ID NOs: 28 and 29 (antibody, V domains shown)
VH: EVQLVESGGGLVQPGGSLRLSCAASGYSFTGYYIHWVRQAPGKGLEWVARVIPNAGGTSYNQKFKGRFTLSVDNSKNTAYLQMNSLRAEDTAVYYCAREGIYWWGQGTLVTVSS
VL: DIQMTQSPSSLSASVGDRVTITCRSSQSLVHSNGNTFLHWYQQKPGKAPKLLIYTVSNRFSGVPSRFSGSGSGTDFTLTISSLQPEDFATYFCSQTTHVPWTFGQGTKVEIK
modifications: nonfucosylated; VH of SEA-CD40; VL of SEA-CD40
affinity for FcγRIIIa (rank among CD40 antibodies tested) (human FcγRIIIa): highest affinity | affinity for FcγRIIb (rank among CD40 antibodies tested) (human FcγRIIb): lowest affinity

B2: SEA-BCMA: nonfucosylated antibody targeting B-cell maturation antigen (BCMA); VH and VL of SEQ ID NOs: 45 and 46 (antibody, V domains shown)
VH: QVQLVQSGAEVKKPGASVKLSCKASGYTFTDYYIHWVRQAPGQGLEWIGYINPNSGYTNYAQKFQGRATMTADKSINTAYVELSRLRSDDTAVYFCTRYMWERVTGFFDFWGQGTMVTVSS
VL: DIQMTQSPSSVSASVGDRVTITCLASEDISDDLAWYQQKPGKAPKVLVYTTSSLQSGVPSRFSGSGSGTDFTLTISSLQPEDFATYFCQQTYKFPPTFGGGTKVEIK
modifications: nonfucosylated; SGN-BCMA heavy chain variable region; SGN-BCMA light chain variable region
animals alive by day 160 (MM1S MM cells): zero

B3: SEA-CD70: nonfucosylated antibody targeting the CD70 antigen; VH and VL of SEQ ID NOs: 41 and 42 (antibody, V domains shown)
VH: QVQLVQSGAEVKKPGASVKVSCKASGYTFTNYGMNWVRQAPGQGLKWMGWINTYTGEPTYADAFKGRVTMTRDTSISTAYMELSRLRSDDTAVYYCARDYGDYGMDYWGQGTTVTVSS
VL: DIVMTQSPDSLAVSLGERATINCRASKSVSTSGYSFMHWYQQKPGQPPKLLIYLASNLESGVPDRFSGSGSGTDFTLTISSLQAEDVAVYYCQHSREVPWTFGQGTKVEIK
modifications: nonfucosylated; SEA-CD70 heavy chain variable region; SGN-CD70 light chain variable region
day at which tumors reached an average 5 fold increase of original size (Farage cells; day post implant, untreated 28.5): 34.5 days | days post treatment at which tumors reached an average 5 fold increase (Farage cells; untreated 9.5): 15.5 days post treatment
